The values below come from US20200270588A1, “GLUCOSYL TRANSFERASE POLYPEPTIDES AND METHODS OF USE” (Syngenta Participations AG, priority 2017, published 2020).

Experiment [1] can be described thus: UDP luminescence plate assay of E. coli extracts, saturation mutants of SEQ ID NO: 1, herbicide V. Format: biochemical, Zea mays. Particulars: improvement factor relative to w/t bx9 = 1.0, rounded to nearest 0.5; extract activity basis; compound V.
A short description of experiment [2]: UDP luminescence plate assay of E. coli extracts, mutants of SEQ ID No: 1, 2 mM metribuzin. To be noted: for SIGNAL: metribuzin signal of mutant divided by the signal of w/t bx9 / luminescence signal observed with 2 mM metribuzin / SIGNAL: metribuzin signal of mutant divided by metribuzin signal of w/t bx9 / luminescence signal with metribuzin: 2 mM metribuzin; for SIGNAL: metribuzin signal of mutant divided by the signal of w/t bx9: relative to bx9 w/t; for luminescence signal in the DMSO control: mutants of SEQ ID No: 1, DMSO in place of metribuzin (background UDP-glucose hydrolysis); for luminescence signal observed with 2 mM metribuzin: mutants of SEQ ID No: 1 in E. coli extracts, UDP luminescence; for luminescence signal with metribuzin: H24A null background 1.00E+05 not subtracted. Format: biochemical, Zea mays. In a few lines:
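Extracts of E. coli BL21 DE3 expressing C-terminally His-tagged SEQ ID NO:1 variants incubated with 2 mM metribuzin; UDP formed read by UDP-Glo luminescence against a UDP standard curve, with optional 95 C stop. Mutants ranked by metribuzin/DMSO signal ratio and signal increase over wild-type bx9.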

B1: A281R: bx9 SEQ ID NO:1 mutant (protein)
chain: MASSRTGAGAGGRVVVFPFPFQGHFNPVMRLARALHARGLAITVFHSGALDPADYPADYRFVPVTVEADPKLLASEDIAAIVTTLNASCDAPFRARLSALLAAEGRDSVRCVFTDVSWNAVLTASSDLGVPALGMMTASAASLRDYMAYRTLIDKGYLPVKEERKEDPVPELPPYLVKDLLRVDTSDLEEFAELLARTVTAARRASGLIFNTFPLIETDTLAEIHKALSVPVFAVAPLNKLVPTATASLHGVVQADRGCLQWLDTQQPGSVLYVSFGSMARMDPHEFVELAWGLADSKRPFVWVVRPNLIRGFESGALPDGVEDEVRGRGIVVAWAPQEEVLAHPAVGGFLTHNGWNSTVEAISEGVPMVCCPRHGDQFGNMRYVCDVWKVGTELVGEQLERGQVKAAIDRLFGTKEGEEIKERMKEFKIAAAKGIGIGVDVDETASPRTDLTDLVDLIKSF
modifications: Zea mays
Regarding B1, the “Most Preferred amino acid substitutions and (IF) based on RLU/min/ul” value in experiment [1] is 5.0. Also, in experiment [2], the “SIGNAL: metribuzin signal of mutant divided by the signal of w/t bx9” value was 3.90, the “luminescence signal in the DMSO control” value is 1.30E+06 and the “luminescence signal observed with 2 mM metribuzin” value (from here on “luminescence signal observed”) was determined as 1.09E+06.

B2: I363L: bx9 SEQ ID NO:1 mutant (protein)
chain: MASSRTGAGAGGRVVVFPFPFQGHFNPVMRLARALHARGLAITVFHSGALDPADYPADYRFVPVTVEADPKLLASEDIAAIVTTLNASCDAPFRARLSALLAAEGRDSVRCVFTDVSWNAVLTASSDLGVPALGMMTASAASLRDYMAYRTLIDKGYLPVKEERKEDPVPELPPYLVKDLLRVDTSDLEEFAELLARTVTAARRASGLIFNTFPLIETDTLAEIHKALSVPVFAVAPLNKLVPTATASLHGVVQADRGCLQWLDTQQPGSVLYVSFGSMAAMDPHEFVELAWGLADSKRPFVWVVRPNLIRGFESGALPDGVEDEVRGRGIVVAWAPQEEVLAHPAVGGFLTHNGWNSTVEALSEGVPMVCCPRHGDQFGNMRYVCDVWKVGTELVGEQLERGQVKAAIDRLFGTKEGEEIKERMKEFKIAAAKGIGIGVDVDETASPRTDLTDLVDLIKSF
modifications: Zea mays
With B2, the “Most Preferred amino acid substitutions and (IF) based on RLU/min/ul” value in experiment [1] is listed as “L,M(3.0)”. Besides, in experiment [2], the “SIGNAL: metribuzin signal of mutant divided by the signal of w/t bx9” value stood at 1.24, the “luminescence signal in the DMSO control” value was 4.00E+05 and the “luminescence signal observed” value is 3.47E+05.

B3: A281K: bx9 SEQ ID NO:1 mutant (protein)
chain: MASSRTGAGAGGRVVVFPFPFQGHFNPVMRLARALHARGLAITVFHSGALDPADYPADYRFVPVTVEADPKLLASEDIAAIVTTLNASCDAPFRARLSALLAAEGRDSVRCVFTDVSWNAVLTASSDLGVPALGMMTASAASLRDYMAYRTLIDKGYLPVKEERKEDPVPELPPYLVKDLLRVDTSDLEEFAELLARTVTAARRASGLIFNTFPLIETDTLAEIHKALSVPVFAVAPLNKLVPTATASLHGVVQADRGCLQWLDTQQPGSVLYVSFGSMAKMDPHEFVELAWGLADSKRPFVWVVRPNLIRGFESGALPDGVEDEVRGRGIVVAWAPQEEVLAHPAVGGFLTHNGWNSTVEAISEGVPMVCCPRHGDQFGNMRYVCDVWKVGTELVGEQLERGQVKAAIDRLFGTKEGEEIKERMKEFKIAAAKGIGIGVDVDETASPRTDLTDLVDLIKSF
modifications: Zea mays
As for B3, the “Most Preferred amino acid substitutions and (IF) based on RLU/min/ul” value in experiment [1] came out at 6.0. Further, in experiment [2], the “SIGNAL: metribuzin signal of mutant divided by the signal of w/t bx9” value turned out to be 4.98, the “luminescence signal in the DMSO control” value came to 1.66E+06 and the “luminescence signal observed” value was 1.39E+06.

B4: A334Q: bx9 SEQ ID NO:1 mutant (protein)
chain: MASSRTGAGAGGRVVVFPFPFQGHFNPVMRLARALHARGLAITVFHSGALDPADYPADYRFVPVTVEADPKLLASEDIAAIVTTLNASCDAPFRARLSALLAAEGRDSVRCVFTDVSWNAVLTASSDLGVPALGMMTASAASLRDYMAYRTLIDKGYLPVKEERKEDPVPELPPYLVKDLLRVDTSDLEEFAELLARTVTAARRASGLIFNTFPLIETDTLAEIHKALSVPVFAVAPLNKLVPTATASLHGVVQADRGCLQWLDTQQPGSVLYVSFGSMAAMDPHEFVELAWGLADSKRPFVWVVRPNLIRGFESGALPDGVEDEVRGRGIVVQWAPQEEVLAHPAVGGFLTHNGWNSTVEAISEGVPMVCCPRHGDQFGNMRYVCDVWKVGTELVGEQLERGQVKAAIDRLFGTKEGEEIKERMKEFKIAAAKGIGIGVDVDETASPRTDLTDLVDLIKSF
modifications: Zea mays
For the molecule B4, in experiment [1], the “Preferred amino acid substitutions and (IF) based on RLU/min/ul” value is given as “S,Q,V,L(1.5)”. Further, in experiment [2], the “SIGNAL: metribuzin signal of mutant divided by the signal of w/t bx9” value turned out to be 1.22, the “luminescence signal in the DMSO control” value was determined as 4.88E+05 and the “luminescence signal observed” value worked out at 3.40E+05.

B5: A334R: bx9 SEQ ID NO:1 mutant (protein)
chain: MASSRTGAGAGGRVVVFPFPFQGHFNPVMRLARALHARGLAITVFHSGALDPADYPADYRFVPVTVEADPKLLASEDIAAIVTTLNASCDAPFRARLSALLAAEGRDSVRCVFTDVSWNAVLTASSDLGVPALGMMTASAASLRDYMAYRTLIDKGYLPVKEERKEDPVPELPPYLVKDLLRVDTSDLEEFAELLARTVTAARRASGLIFNTFPLIETDTLAEIHKALSVPVFAVAPLNKLVPTATASLHGVVQADRGCLQWLDTQQPGSVLYVSFGSMAAMDPHEFVELAWGLADSKRPFVWVVRPNLIRGFESGALPDGVEDEVRGRGIVVRWAPQEEVLAHPAVGGFLTHNGWNSTVEAISEGVPMVCCPRHGDQFGNMRYVCDVWKVGTELVGEQLERGQVKAAIDRLFGTKEGEEIKERMKEFKIAAAKGIGIGVDVDETASPRTDLTDLVDLIKSF
modifications: Zea mays
As to B5, in experiment [1], the “Most Preferred amino acid substitutions and (IF) based on RLU/min/ul” value was “K,R(2.0)”. Moreover, in experiment [2], the “SIGNAL: metribuzin signal of mutant divided by metribuzin signal of w/t bx9” value is 1.94 and the “luminescence signal with metribuzin” value is 2.39E+05.

B6: A334L: bx9 SEQ ID NO:1 mutant (protein)
chain: MASSRTGAGAGGRVVVFPFPFQGHFNPVMRLARALHARGLAITVFHSGALDPADYPADYRFVPVTVEADPKLLASEDIAAIVTTLNASCDAPFRARLSALLAAEGRDSVRCVFTDVSWNAVLTASSDLGVPALGMMTASAASLRDYMAYRTLIDKGYLPVKEERKEDPVPELPPYLVKDLLRVDTSDLEEFAELLARTVTAARRASGLIFNTFPLIETDTLAEIHKALSVPVFAVAPLNKLVPTATASLHGVVQADRGCLQWLDTQQPGSVLYVSFGSMAAMDPHEFVELAWGLADSKRPFVWVVRPNLIRGFESGALPDGVEDEVRGRGIVVLWAPQEEVLAHPAVGGFLTHNGWNSTVEAISEGVPMVCCPRHGDQFGNMRYVCDVWKVGTELVGEQLERGQVKAAIDRLFGTKEGEEIKERMKEFKIAAAKGIGIGVDVDETASPRTDLTDLVDLIKSF
modifications: Zea mays
With B6, the “Preferred amino acid substitutions and (IF) based on RLU/min/ul” value in experiment [1] is “S,Q,V,L(1.5)”. For the same molecule, in experiment [2], the “SIGNAL: metribuzin signal of mutant divided by the signal of w/t bx9” value is given as 1.51, the “luminescence signal in the DMSO control” value is 5.19E+05 and the “luminescence signal observed” value is 4.22E+05.

B7: A334S: bx9 SEQ ID NO:1 mutant (protein)
chain: MASSRTGAGAGGRVVVFPFPFQGHFNPVMRLARALHARGLAITVFHSGALDPADYPADYRFVPVTVEADPKLLASEDIAAIVTTLNASCDAPFRARLSALLAAEGRDSVRCVFTDVSWNAVLTASSDLGVPALGMMTASAASLRDYMAYRTLIDKGYLPVKEERKEDPVPELPPYLVKDLLRVDTSDLEEFAELLARTVTAARRASGLIFNTFPLIETDTLAEIHKALSVPVFAVAPLNKLVPTATASLHGVVQADRGCLQWLDTQQPGSVLYVSFGSMAAMDPHEFVELAWGLADSKRPFVWVVRPNLIRGFESGALPDGVEDEVRGRGIVVSWAPQEEVLAHPAVGGFLTHNGWNSTVEAISEGVPMVCCPRHGDQFGNMRYVCDVWKVGTELVGEQLERGQVKAAIDRLFGTKEGEEIKERMKEFKIAAAKGIGIGVDVDETASPRTDLTDLVDLIKSF
modifications: Zea mays
For B7, the “Preferred amino acid substitutions and (IF) based on RLU/min/ul” value in experiment [1] is “S,Q,V,L(1.5)”. Also, in experiment [2], the “SIGNAL: metribuzin signal of mutant divided by metribuzin signal of w/t bx9” value is reported as 0.98 and the “luminescence signal with metribuzin” value was 1.21E+05.

B8: A334V: bx9 SEQ ID NO:1 mutant (protein)
chain: MASSRTGAGAGGRVVVFPFPFQGHFNPVMRLARALHARGLAITVFHSGALDPADYPADYRFVPVTVEADPKLLASEDIAAIVTTLNASCDAPFRARLSALLAAEGRDSVRCVFTDVSWNAVLTASSDLGVPALGMMTASAASLRDYMAYRTLIDKGYLPVKEERKEDPVPELPPYLVKDLLRVDTSDLEEFAELLARTVTAARRASGLIFNTFPLIETDTLAEIHKALSVPVFAVAPLNKLVPTATASLHGVVQADRGCLQWLDTQQPGSVLYVSFGSMAAMDPHEFVELAWGLADSKRPFVWVVRPNLIRGFESGALPDGVEDEVRGRGIVVVWAPQEEVLAHPAVGGFLTHNGWNSTVEAISEGVPMVCCPRHGDQFGNMRYVCDVWKVGTELVGEQLERGQVKAAIDRLFGTKEGEEIKERMKEFKIAAAKGIGIGVDVDETASPRTDLTDLVDLIKSF
modifications: Zea mays
With B8, the “Preferred amino acid substitutions and (IF) based on RLU/min/ul” value in experiment [1] is reported as “S,Q,V,L(1.5)”. In experiment [2], the “SIGNAL: metribuzin signal of mutant divided by the signal of w/t bx9” value is recorded as 1.57, the “luminescence signal in the DMSO control” value was 4.80E+05 and the “luminescence signal observed” value is 4.40E+05.

B9: A334N: bx9 SEQ ID NO:1 mutant (protein)
chain: MASSRTGAGAGGRVVVFPFPFQGHFNPVMRLARALHARGLAITVFHSGALDPADYPADYRFVPVTVEADPKLLASEDIAAIVTTLNASCDAPFRARLSALLAAEGRDSVRCVFTDVSWNAVLTASSDLGVPALGMMTASAASLRDYMAYRTLIDKGYLPVKEERKEDPVPELPPYLVKDLLRVDTSDLEEFAELLARTVTAARRASGLIFNTFPLIETDTLAEIHKALSVPVFAVAPLNKLVPTATASLHGVVQADRGCLQWLDTQQPGSVLYVSFGSMAAMDPHEFVELAWGLADSKRPFVWVVRPNLIRGFESGALPDGVEDEVRGRGIVVNWAPQEEVLAHPAVGGFLTHNGWNSTVEAISEGVPMVCCPRHGDQFGNMRYVCDVWKVGTELVGEQLERGQVKAAIDRLFGTKEGEEIKERMKEFKIAAAKGIGIGVDVDETASPRTDLTDLVDLIKSF
modifications: Zea mays
Turning to B9, in experiment [1], the “Preferred amino acid substitutions and (IF) based on RLU/min/ul” value is listed as “N(1.0)”. Further, in experiment [2], the “SIGNAL: metribuzin signal of mutant divided by metribuzin signal of w/t bx9” value turned out to be 1.56 and the “luminescence signal with metribuzin” value is reported as 1.93E+05.
